From US20200079833A1 (AstraZeneca / MedImmune, published 2020)
Starred links: 1 amine or outer side, 2 acyl side, 3 side chain; linkers in the order of their positions; H or OH if unused. Non-standard residues stand in square brackets, D forms with d. Groups on a side chain read outwards from the residue. Primed or numbered codes have the meaning given here. No end group written: not given here. *: point of attachment. γGlu = O=C(O)[C@H](CCC(=O)[*:2])N[*:1]; Stearoyl = CCCCCCCCCCCCCCCCCC(=O)*; αMeF = C[C@](N)(Cc1ccccc1)C(=O)O; αMeK = C[C@](N)(CCCCN)C(=O)O; αMeS = C[C@](N)(CO)C(=O)O; PEG2′ = not defined here; Aib = CC(C)(N)C(=O)O

B1: SEQ ID NO 46 (peptide)
peptide: H[Aib]EGS[αMeF]TSDVSS[αMeF]LEGEAAK([PEG2′-PEG2′-γGlu-Stearoyl])E[αMeF]IA[αMeF]VV[αMeK]GG-NH2
B2: SEQ ID NO 45 (peptide)
peptide: H[Aib]EGSFTSDV[αMeS]S[αMeF]LEGEAAK([PEG2′-PEG2′-γGlu-Stearoyl])E[αMeF]IA[αMeF]VV[αMeK]GG-NH2
B3: SEQ ID NO 44 (peptide)
peptide: H[Aib]EGS[αMeF]TSDV[αMeS]S[αMeF]LEGEAAEE[αMeF]IA[αMeF]VVEGG-NH2
modifications: N-terminus assumed
SMILES: CC[C@H](C)[C@H](NC(=O)[C@](C)(Cc1ccccc1)NC(=O)[C@H](CCC(=O)O)NC(=O)[C@H](CCC(=O)O)NC(=O)[C@H](C)NC(=O)[C@H](C)NC(=O)[C@H](CCC(=O)O)NC(=O)CNC(=O)[C@H](CCC(=O)O)NC(=O)[C@H](CC(C)C)NC(=O)[C@](C)(Cc1ccccc1)NC(=O)[C@H](CO)NC(=O)[C@](C)(CO)NC(=O)[C@@H](NC(=O)[C@H](CC(=O)O)NC(=O)[C@H](CO)NC(=O)[C@@H](NC(=O)[C@](C)(Cc1ccccc1)NC(=O)[C@H](CO)NC(=O)CNC(=O)[C@H](CCC(=O)O)NC(=O)C(C)(C)NC(=O)[C@@H](N)Cc1c[nH]cn1)[C@@H](C)O)C(C)C)C(=O)N[C@@H](C)C(=O)N[C@@](C)(Cc1ccccc1)C(=O)N[C@H](C(=O)N[C@H](C(=O)N[C@@H](CCC(=O)O)C(=O)NCC(=O)NCC(N)=O)C(C)C)C(C)C
B4: SEQ ID NO 43 (peptide)
peptide: H[Aib]EGS[αMeF]TSDV[αMeS]S[αMeF]LEGEAA[αMeK]E[αMeF]IA[αMeF]VVEGG-NH2
modifications: N-terminus assumed
SMILES: CC[C@H](C)[C@H](NC(=O)[C@](C)(Cc1ccccc1)NC(=O)[C@H](CCC(=O)O)NC(=O)[C@](C)(CCCCN)NC(=O)[C@H](C)NC(=O)[C@H](C)NC(=O)[C@H](CCC(=O)O)NC(=O)CNC(=O)[C@H](CCC(=O)O)NC(=O)[C@H](CC(C)C)NC(=O)[C@](C)(Cc1ccccc1)NC(=O)[C@H](CO)NC(=O)[C@](C)(CO)NC(=O)[C@@H](NC(=O)[C@H](CC(=O)O)NC(=O)[C@H](CO)NC(=O)[C@@H](NC(=O)[C@](C)(Cc1ccccc1)NC(=O)[C@H](CO)NC(=O)CNC(=O)[C@H](CCC(=O)O)NC(=O)C(C)(C)NC(=O)[C@@H](N)Cc1c[nH]cn1)[C@@H](C)O)C(C)C)C(=O)N[C@@H](C)C(=O)N[C@@](C)(Cc1ccccc1)C(=O)N[C@H](C(=O)N[C@H](C(=O)N[C@@H](CCC(=O)O)C(=O)NCC(=O)NCC(N)=O)C(C)C)C(C)C
B5: SEQ ID NO 47 (peptide)
peptide: H[Aib]EGS[αMeF]TSDV[αMeS]SYLEGEAAK([PEG2′-PEG2′-γGlu-Stearoyl])E[αMeF]IA[αMeF]VV[αMeK]GG-NH2
B6: SEQ ID NO 42 (peptide)
peptide: H[Aib]EGS[αMeF]TSDV[αMeS]S[αMeF]LEGEAAEE[αMeF]IA[αMeF]VV[αMeK]GG-NH2
modifications: N-terminus assumed
SMILES: CC[C@H](C)[C@H](NC(=O)[C@](C)(Cc1ccccc1)NC(=O)[C@H](CCC(=O)O)NC(=O)[C@H](CCC(=O)O)NC(=O)[C@H](C)NC(=O)[C@H](C)NC(=O)[C@H](CCC(=O)O)NC(=O)CNC(=O)[C@H](CCC(=O)O)NC(=O)[C@H](CC(C)C)NC(=O)[C@](C)(Cc1ccccc1)NC(=O)[C@H](CO)NC(=O)[C@](C)(CO)NC(=O)[C@@H](NC(=O)[C@H](CC(=O)O)NC(=O)[C@H](CO)NC(=O)[C@@H](NC(=O)[C@](C)(Cc1ccccc1)NC(=O)[C@H](CO)NC(=O)CNC(=O)[C@H](CCC(=O)O)NC(=O)C(C)(C)NC(=O)[C@@H](N)Cc1c[nH]cn1)[C@@H](C)O)C(C)C)C(=O)N[C@@H](C)C(=O)N[C@@](C)(Cc1ccccc1)C(=O)N[C@H](C(=O)N[C@H](C(=O)N[C@@](C)(CCCCN)C(=O)NCC(=O)NCC(N)=O)C(C)C)C(C)C
B7: SEQ ID NO 50 (peptide)
peptide: H[Aib]EGS[αMeF]TSDV[αMeS]S[αMeF]LEGEAAK([PEG2′-PEG2′-γGlu-Stearoyl])E[αMeF]IA[αMeF]VVKGG-NH2
B8: SEQ ID NO 49 (peptide)
peptide: H[Aib]EGS[αMeF]TSDV[αMeS]S[αMeF]LEGEAAK([PEG2′-PEG2′-γGlu-Stearoyl])E[αMeF]IAWVV[αMeK]GG-NH2
B9: SEQ ID NO 7 (peptide)
peptide: H[Aib]EGS[αMeF]TSEVSS[αMeF]LEGEAA[αMeK]E[αMeF]IA[αMeF]VV[αMeK]GG-NH2
modifications: N-terminus assumed
SMILES: CC[C@H](C)[C@H](NC(=O)[C@](C)(Cc1ccccc1)NC(=O)[C@H](CCC(=O)O)NC(=O)[C@](C)(CCCCN)NC(=O)[C@H](C)NC(=O)[C@H](C)NC(=O)[C@H](CCC(=O)O)NC(=O)CNC(=O)[C@H](CCC(=O)O)NC(=O)[C@H](CC(C)C)NC(=O)[C@](C)(Cc1ccccc1)NC(=O)[C@H](CO)NC(=O)[C@H](CO)NC(=O)[C@@H](NC(=O)[C@H](CCC(=O)O)NC(=O)[C@H](CO)NC(=O)[C@@H](NC(=O)[C@](C)(Cc1ccccc1)NC(=O)[C@H](CO)NC(=O)CNC(=O)[C@H](CCC(=O)O)NC(=O)C(C)(C)NC(=O)[C@@H](N)Cc1c[nH]cn1)[C@@H](C)O)C(C)C)C(=O)N[C@@H](C)C(=O)N[C@@](C)(Cc1ccccc1)C(=O)N[C@H](C(=O)N[C@H](C(=O)N[C@@](C)(CCCCN)C(=O)NCC(=O)NCC(N)=O)C(C)C)C(C)C
B10: SEQ ID NO 48 (peptide)
peptide: H[Aib]EGS[αMeF]TSDV[αMeS]S[αMeF]LEGEAAK([PEG2′-PEG2′-γGlu-Stearoyl])EFIA[αMeF]VV[αMeK]GG-NH2

Experiments:
Experiment in all cases: cell-based or functional assay
[1] = target: GLP-1 receptor (human, UniProt P43220 24-463)
[2] = target: glucagon receptor (human, UniProt P47871 26-477)
Sequence of glucagon receptor (P47871 26-477): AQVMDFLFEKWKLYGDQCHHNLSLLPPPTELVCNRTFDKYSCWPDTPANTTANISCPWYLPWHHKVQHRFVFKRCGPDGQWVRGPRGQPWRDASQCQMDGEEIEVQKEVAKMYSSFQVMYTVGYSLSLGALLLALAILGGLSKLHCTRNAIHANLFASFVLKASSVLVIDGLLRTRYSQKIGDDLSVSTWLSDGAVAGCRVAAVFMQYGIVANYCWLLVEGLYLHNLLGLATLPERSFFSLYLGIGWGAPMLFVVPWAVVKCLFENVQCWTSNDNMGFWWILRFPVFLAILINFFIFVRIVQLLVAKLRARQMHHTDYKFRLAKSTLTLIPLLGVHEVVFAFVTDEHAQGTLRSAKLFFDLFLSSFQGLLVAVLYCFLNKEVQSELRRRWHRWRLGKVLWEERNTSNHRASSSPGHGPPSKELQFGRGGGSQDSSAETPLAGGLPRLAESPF

[3] = target: T1, glucose-dependent insulinotropic peptide (gastric inhibitory polypeptide) receptor (human, UniProt P48546 22-466)
T1 sequence (looked up): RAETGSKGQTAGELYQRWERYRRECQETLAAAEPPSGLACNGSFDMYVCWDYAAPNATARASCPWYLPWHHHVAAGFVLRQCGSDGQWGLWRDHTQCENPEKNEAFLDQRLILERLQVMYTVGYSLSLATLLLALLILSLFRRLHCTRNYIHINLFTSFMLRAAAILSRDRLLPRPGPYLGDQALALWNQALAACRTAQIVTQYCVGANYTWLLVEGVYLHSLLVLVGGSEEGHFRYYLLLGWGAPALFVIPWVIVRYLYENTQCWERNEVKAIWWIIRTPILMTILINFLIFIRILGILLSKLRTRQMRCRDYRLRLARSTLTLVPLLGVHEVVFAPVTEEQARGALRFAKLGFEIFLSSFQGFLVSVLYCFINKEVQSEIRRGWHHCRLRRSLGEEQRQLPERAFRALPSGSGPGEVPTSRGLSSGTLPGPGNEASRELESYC

Binder | Primary assay EC50 (cAMP), Mean pM GLP-1R [1] | Primary assay EC50 (cAMP), n1 [1] | Primary assay EC50 (cAMP), n2 [1] | Primary assay EC50 (cAMP), n1 [2] | Primary assay EC50 (cAMP), n2 [2] | Primary assay EC50 (cAMP), n1 [3] | Primary assay EC50 (cAMP), n2 [3]
B1 | 1560 pM | 0.92 nM | 2.2 nM | 26 nM | 26 nM | 26 nM | 26 nM
B2 | 3560 pM | 3.8 nM | 3.3 nM | 26 nM | 26 nM | 26 nM | 26 nM
B3 | 6.7 pM | 0.0065 nM | 0.0069 nM | 31 nM | 31 nM | 31 nM | 31 nM
B4 | 0.6 pM | 0.00045 nM | 0.00071 nM | 31 nM | 31 nM | 31 nM | 31 nM
B5 | 43.3 pM | 0.037 nM | 0.05 nM | 25 nM | 25 nM | 25 nM | 25 nM
B6 | 8.7 pM | 0.0069 nM | 0.011 nM | 31 nM | 31 nM | 31 nM | 31 nM
B7 | 216 pM | 0.17 nM | 0.26 nM | 26 nM | 26 nM | 26 nM | 26 nM
B8 | 124 pM | 0.096 nM | 0.15 nM | 25 nM | 25 nM | 25 nM | 25 nM
B9 | 389 pM | 0.35 nM | 0.43 nM | 100 nM | 100 nM | 100 nM | 100 nM
B10 | 6.1 pM | 0.0039 nM | 0.0082 nM | 26 nM | 26 nM | 26 nM | 26 nM
